assay: soluble on expression in E. coli; label from the status in PepcDB or PDB records

| Sequence | soluble on expression in E. coli |
| --- | --- |
| MTIAILSTGDEIIHGDTLNTNAHYIAHALCSEGLPLGLQVACSDKENEIIDSLNFLTQHHDILILIGGLGPTKDDITRFALAKFTKEPLLQHADALDHIEKKANIAKISLNQGNLQQCLFPANARLFPNPYGTAMGCSYSWKGKVFILLPGPPRECLPMFNQDVLPLLLQTSRHSNK | not soluble |
| MHHHHHHPMEPEIKIVNVVVSTKIGDNIDLEEVAMILENAEYEPEQFPGLVCRLSVPKVALLIFRSGKVNCTGAKSKEEAEIAIKKIIKELKDAGIDVIENPEIKIQNMVATADLGIEPNLDDIALMVEGTEYEPEQFPGLVYRLDDPKVVVLIFGSGKVVITGLKSEEDAKRALKKILDTIKEVQEL | soluble |
| MSLKYVIGIDLGTSAVKTILVNQNGKVCAETSKRYPLIQEKAGYSEQNPEDWVQQTIEALAELVSISNVQAKDIDGISYSGQMHGLVLLDQDRQVLRNAILWNDTRTTPQCIRMTEKFGDHLLDITKNRVLEGFTLPKMLWVKEHEPELFKKTAVFLLPKDYVRFRMTGVIHTEYSDAAGTLLLHITRKEWSNDICNQIGISADICPPLVESHDCVGSLLPHVAAKTGLLEKTKVYAGGADNACGAIGAGILSSGKTLCSIGTSGVILSYEEEKERDFKGKVHFFNHGKKDSFYTMGVTLAAGYSLDWFKRTFAPNESFEQLLQGVEAIPIGANGLLYTPYLVGERTPHADSSIRGSLIGMDGAHNRKHFLRAIMEGITFSLHESIELFREAGKSVHTVVSIGGGAKNDTWLQMQADIFNTRVIKLENEQGPAMGAAMLAAFGSGWFESLEECAEQFIREAAAFYPKAQNVQKYKTLFDLYKNIYTHTKDLNTALKSFRKNEGHHHHHH | soluble |
| MGSDKIHHHHHHVDLSVMNRKRSESFNEVAEIYDAARPSYPSQLIEDVIEMANLTDSASILDIGTGTGKGTVPFAEKGYAIYCLEPGERLIAIASQNMRLYPKVIFETVTLEDWNLRPSAFDLAISAQAFHWVNREKGYPKVAQALKEKGYIAFFWNFSILPDTSIFQALKETFQKYVPTISNAKPSSVESLIKKRENWILNSFYFKNLVVKKYPWSINYDAEGYLGLLKTQTAYQKFTGTEKQDFSDAIIQILNAHGGYVTKPYLSVLFFAQKI | not soluble |
| MAHHHHHHMQKSNEKNGPENNAKNGPENNAKNGPENNAKKGPENNAKKGPENNAKKGPENNAKKGPENNAKKGPENKEKKGHSCCGKKGSTGNPKEKKKSDKNSEDNKNSQGDKISKDHAECTPSLHVECAHNCCKKKLAFIYDCWDNFKSYKNIIEQHTKGQQENNFQLQGAGDEDSGEDGGASTTGHSMAMAMPMSFQLSTHTIILFKFWETKTVSRAGIPSQWRLLSGTP | soluble |
| MGSDKIHHHHHHMAEYFQDDLGFRPFNAQVNHCTRDLGFRLYEPSDVLFASFSDESGMRTYVRTLSFILSKAVADILPGSKLFIEHSLSNGYYCQIKNAHMITPGEIVRIKERMESLIVADIPFRAHCERTEEVAAMFRSMGYEDKADLLETKGMPYSRYYDLDGYPDYYYGSLAPSTGYIGLFGLEPYLDGVLLRIPRRDKPEELAPFVPQPMMRQVFADHDRLLDILQVTHVGSLNKAVDRNDISTMVQVSEAMQEKQIAAIADDIAHKYKEGVRVVLISGPSSSGKTTFCKRLQTQLLTNYIRPYGLSLDDYFINREDSPRDESGDYDFESLYALDLPLFNKDLKQMIAGEEVSLPTYDFATGMRVYKGNTIQLKDGDILILEGIHALNPELIPGVPESSTYKIYVSALTAIGLDAHNRIPSTDNRLIRRLVRDYRYRNYSGLGTLRRWQSVRRGEEKWVFPFQENAHVMFNSAMLYELAVLRAYAEPILQAIPRNEPEYAEARRLLRFLSSFRMIPARLLPNNSLMREFLGGSTFHY | not soluble |
| MGHHHHHHSHMPKKKTGARKKAENRREREKQLRASRSTIDLAKHPCNASMECDKCQRRQKNRAFCYFCNSVQKLPICAQCGKTKCMMKSSDCVIKHAGVYSTGLAMVGAICDFCEAWVCHGRKCLSTHACACPLTDAECVECERGVWDHGGRIFSCSFCHNFLCEDDQFEHQASCQVLEAETFKCVSCNRLGQHSCLRCKACFCDDHTRSKVFKQEKGKQPPCPKCGHETQETKDLSMSTRSLKFGRQTGGEEGDGASGYDAYWKNLSSDKYGDTSYHDEEEDEYEAEDDEEEEDEGRKDSDTESSDLFTNLNLGRTYASGYAHYEEQEN | soluble |
| MKKTTLMSAVVATLSLVGCQSTTGSSDAQPEQTSHISQAVYEVEFHAAQSFLSQASQLEQSFADFCLAPKNDVEPVQQQWHSTMLAWMALQGQERGPATALEQSWNVQFWPDKKNTTGRKMSALTKADKVWTVEEISTQSVTVQGLGALEWLLYDDASTLNTNSNVCASGVAIAENLHDKAQIIANSWAENPWKSLQKTEWESEYISLLSNQLEYSMKKLSRPLAKIGHPRPYFSESWRSETSLSNLKANLESLHQLYFANGKGLDALLRAQGKTQLADRVAYQFDMALETWPEDKSLFSALQSVDGYRLVLAQYNKLEQLKYLIHEEVAIELGVVIGFNATDGD | not soluble |
| MKNEKIVVLYGGDSPEREVSLKSGKAVLDSLISQGYDAVGVDASGKELVAKLLELKPDKCFVALHGEDGENGRVSALLEMLEIKHTSSSMKSSVITMDKMISKEILMHHRMPTPMAKFLTDKLVAEDEISFPVAVKPSSGGSSIATFKVKSIQELKHAYEEASKYGEVMIEQWVTGKEITVAIVNDEVYSSVWIEPQNEFYDYESKYSGKSIYHSPSGLCEQKELEVRQLAKKAYDLLGCSGHARVDFIYDDRGNFYIMEINSSPGMTDNSLSPKSAAAEGVDFDSFVKRIIEQAQ | not soluble |
| MSLSNLTSQLHNFFSAQLAGVSDEVRVSIRTAPNLLPPCEQPLLSMSNNSRLWGNVNVLARCGNDKRYLQVNVQATGNYVVAAMPIARGGKLEAGNVKLKRGRLDTLPPRTVLDINQLVDAISLRDLSPDQPIQLTQFRQAWRVKAGQRVNVIASGDGFSANAEGQALNNAAVAQNARVRMVSGQVVSGVVDADGNILINLEGHHHHHH | soluble |
| MSNIPKELKYTKSHEWVKIDGDEVTVGITAHAQSLLGDLVYVELPEIGKEFAAGDDSCVVESVKAASDVYAPVDGEVIEINEALVDDPSRVNHTPYKDGWLFKLKISDESQLADLLTADAYAKTLED | not soluble |
| MDSYGYIETMGLLTAIEAADAALKAANVVFTNCYIVKGGIVTVELAGDVAAVTAAVEAGSESARKLGNFISKNVIARVDDETKKILKGDTFISDNNKDGKTEKEISEEELLQNEMEKEEESIEELDALEEIIKADIPTAEGDIPLYDEVIKSPEFSELENDEEAKIITETVKRNDSDGEPYETQEKITVIEEEINTKQTNNNTDYENMKVTDLRGIVKELNSHLTWNQVKAMNKKKLVETLKKNKREK | not soluble |
| MHRELLDALSVITEEEQRILDEQRGIDPQLYTEKKELIVDSEKLLKKGKLIQVRPHTRFVNFPKHKHNYVEVIYMCQGTTTHILNGSKVILEAGDLLFLNQNAEQEILPAGEQDIAVNFIVLPEFFDTAFSMMDMEEENALKEFLVGALCGKNDNTSYLYFHVAEILPIQNLVENMVWTIFYDQPNKRRCNQITMGLLLLQLLNHVDRMETGTAAFDRELTG | not soluble |
| MGSDKIHHHHHHMHQPSDFQVFRTLDRTSNARLLRSSTLSDGLALAHWYRDEAEILGYSDPGHHTLSLYLQGGWQTFRRDRPGLYGGPDRFCVMPAEHHSDWAVTRGLGFMHLYISPERLAGAAVRTLDCEPRSLQLEERTYIQDEPLAALCRTLERQDWNEPGEHLLCTSLAHQAVDHLLLTGCGRRTDVRWQGGLAAHVRRRLADYIESHLEQPLELGSLAELAALSEYHFARMFRVSFGLPPHRYVLERRLARARDLLAYSAQPLQEVSLACGFASPSHFNRRFREAHGATPGQYRAALKAS | not soluble |
| MKYKSGIFAAIHETMQGLHDIGAIDKKTMRGFDKSCLTEIKPLSGGDIKAIREKEALSQAAFAIYLNVGKNHVSAWERGVKKPSGAALKLLTIVKNKGIEAIA | not soluble |
| MSLQPALGVLVASSQPLDQYVVRHPDFFADASPEHARTAPDQPLILFDHIRCAAFELPFIASEPFGPIDPLVFLEVLAESEVIHQEGDRWEWIADSYPATAVSLRSVADGNFVVVDKSDGKQQIIAEVDYSAAALTLYEGAIHMVQSRPYQVERLDWAGRKAYVTRTHVDYYTDSIDYTKLKVLDRFDGGVAGRGDSHHGEVHVVRRVSGYKKIRYYTHENIGYGPVNLPDQELHTTAVWWQLPQATLGKAFEGHHHHHH | soluble |
| MSETFFHLLGPRTQPNDDSFSMNPLPITCQVNDEPSMAALEQCAHSPQVIALLNELQHQLSQRQPPLGEVLAVDLLNLNADDRHFINTLLGEGEVSVRIQQADDSESEIQEAIFCGLWRVRRRRGEKLLEDKLEAGCAPLALWQAATQNLLPTDSLLPPPIDGLMNGLPLAHELLAHVRNPDAQPHSINLTQLPISEADRLFLSRLCGPGNIQIRTIGYGESYINATGLRHVWHLRCTDTLKGPLLESYEICPIPEVVLAAPEDLVDSAQRLSEVCQWLAEAAPT | not soluble |
| MSPETMFFQDEDSRNLATNFIANYLKLWDANRSELMILYQNESQFSMQVDSSHPHLIESGNSGYSGSTDFGYYLNNSRNLTRVSSIKARMAKLSIGQEQIYKSFQQLPKTRHDIIATPELFSMEVYKFPTLNGIMITLHGSFDEVAQPEVDGSASSAPSGPRGGSRYHSGPKHKRIPLSKKSFDRTFVVIPGPNGSMIVASDTLLIRPYTSDFPWKVQK | soluble |
| LEKNDLVYMQRAFELNDKVAKDIMIDRTQLVVIDITSTVKEALNVYLQERFSRLPVVADNDKDKVLGYVYNYDLTRQQQVDSSVRVDKLIRDISTTPETTPITQVLQQMIKKRTPIVVVVDEYGGTSGIITDKDIYEEL | not soluble |
| MGSDKIHHHHHHMNQDGASPLSETAQPFLQVVGVHKRFTGVHALRGVSLTFERGQIYHLLGENGCGKSTLIKIISGAQPPDQGELVIEGVRHAQLSPLESLAAGIETVYQDLSLLPNMSVAENVALTAELAAHAGKLARTFDRRALARTAARALEAVGLPGSADFQATLIEQLPLATRQLVAIARAIASEAKFVIMDEPTTSLTQKEVDNLIAVLANLRAHGVTVLFVSHKLDECYAIGGEVIVLRDGQKMAQGPIAQFTKARLSELMTGRELSNERYREAGHAQDVVLELRGLTRAGQFSDVSLSLHGGEILGVTGLLDSGRNELARALAGVAPAHAGEVLLDGHAIALRTPSDAKRNRIGYVPEDRLNEGLFLDKPIRDNLITAMISSLRDRFGQIDRARAQALAQQTVKELQIATAGIDKPVQSLSGGNQQRVLIGRWLAIDPRVLILHGPTVGVDVGSRDVIYRIMQRLSQRGIGIILISDDLPELLQNCDRILMMKKGRVASEYRADALDEADLYHALLSEAA | not soluble |
| RQSVQTVLPESTGNNTLSLRDSVCRDLFQLFSSPHSPLPILLVSGMPEWQGHNQSDKLLQSWYCRQLRSALLFHEPRIAALQVNLKEAYCHELAISLEMMLYHDDEPLTFDLVWQKG | not soluble |
| MGSDKIHHHHHHMLKNIPIPSPLSPVEGILIKRKTLERYFSIERLEQQAHQRAKRILREAEEEAKTLRMYAYQEGYEQGMIDALQQVAAYLTDNQTMAWKWMEKIQIYARELFSAAVDHPETLLTVLDEWLRDFDKPEGQLFLTLPVNAKKDHQKLMVLLMENWPGTFNLKYHQEQRFIMSCGDQIAEFSPEQFVETAVGVIKHHLDELPQDCRTISDNAINALIDEWKTKTQAEVIR | not soluble |

Reference: the DeepSol protein solubility set
